In patent US10669350B2, “Antigen-binding constructs that bind to and inhibit catalase and/or superoxide dismutase as well as pharmaceutical compositions containing them for tumor therapy” (priority 2015, dated 2020):
Entries after “also recorded” stand apart in the source; their conditions may differ.

Key:
human SOD1 [1] = target: T1, human SOD1 (Homo sapiens, UniProt P00441); experiment: ELISA selection of clones binding to human SOD1
Excerpt: The preparation was by immunizing alpacas with human SOD1 (SOD1=Cu/ZnSOD [EC 1.15.1.1] purified from human erythrocytes, obtained from Sigma (Schnelldorf), catalogue number S 9636) under supervision of a veterinary, obtaining RNA from the B cells of the animals, reverse transcription, cloning in E. coli and isolation via the phage display technology. […] In a second run, by employing the cell culture system described by Heinzelmann and Bauer (Multiple protective functions of catalase against intercellular apoptosis-inducing ROS signaling of human tumor cells, Biol. Chem. 391, 675-693, 2010) it was checked which of the single domain VHH fragments binding to SOD actually results in an inhibition of SOD, what is expressed in the tumor system used as ROS-dependent apoptosis induction in the cells, since by the inhibition of SOD the concentration of free superoxide anions dramatically increases due to the absence of the enzymatic dismutation and results in a parallel indirect inhibition of catalase. In the following, this is expressed as ROS-dependent apoptosis induction. In a further control trial the specific inhibition of SOD by recombinant single domain VHH fragments was verified by the fact that the increasing effect of these fragments on apoptosis induction by exogenously added HOCl was examined, as described in Bauer 2013 (HOCl-dependent singlet oxygen and hydroxyl radical generation modulate and induce apoptosis of malignant cells. Anticancer Res 33: 3589-3602, 2013).

human SOD1 [2] = target: T1, human SOD1; experiment: Check for inhibition (neutralization) of SOD, ROS-dependent apoptosis induction and HOCl control trial; format: cell-based; parameters: endogenous in cells; host or cells: MKN-45 human gastric carcinoma cells
Excerpt: Thus, the inhibition of the SOD mediated by single domain VHH or Fab fragments (comparison) can be determined by the fact that the apoptosis induction of tumor cells by exogenously added HOCl is employed as the test system. HOCl in a concentration depending manner induces apoptosis that is based on the interaction between HOCl and superoxide anions that results in the formation of aggressive hydroxyl radicals (Bauer G. HOCl-dependent singlet oxygen and hydroxyl radical generation modulate and induce apoptosis of malignant cells. Anticancer Res 33: 3589-3602, 2013). […] That is, the neutralizing effect of single domain VHH or Fab fragments can be determined by checking whether the inhibition of the apoptosis is abolished again by the single domain VHH or Fab fragments to be tested. The quantitative employment of said test system requires linking several simple steps the skilled person is familiar with. In the first step the concentration of commercially available HOCl (or sodium hypochlorite that sufficiently forms HOCl in medium) is determined that generates a significant quantifiable apoptosis signal within a reasonable trial time (1-2 hours). […] As soon as the first two steps have been satisfactorily performed there can take place the actual test of the inhibiting effect of the single domain VHH or Fab fragments. For that, selected concentrations of the fragments to be tested are pre-incubated for 20 minutes with the optimal concentration of SOD determined in advance in step #2. Subsequently, said mixture is added to the test cells. Thereafter, HOCl is added and the apoptosis induction is determined. […]
The preparation was by immunizing alpacas with human SOD1 (SOD1=Cu/ZnSOD [EC 1.15.1.1] purified from human erythrocytes, obtained from Sigma (Schnelldorf), catalogue number S 9636) under supervision of a veterinary, obtaining RNA from the B cells of the animals, reverse transcription, cloning in E. coli and isolation via the phage display technology. […] In the following, this is expressed as ROS-dependent apoptosis induction. […]

[3] = system: human neuroblastoma line SHEP; experiment: Standard preparation for apoptosis induction in SHEP cells (percentage of apoptotic cells); format: cell-based
Method: (§1) The experiments shown in FIG. 13-24 were carried out with a standard preparation for the apoptosis induction that is based on the method performed in Heinzelmann and Bauer 2010. The tumor cells used were taken from an optimally growing semi-sealed culture, centrifuged and placed in fresh medium. The test was performed in 96-well cell culture plates with 12 500 MKN-45 cells/100 μl medium or 10 000 SHEP cells/100 μl medium. MKN-45 cells grow in suspension, SHEP cells are adherent. The tests with SHEP cells were started as soon as the cells had grown on. By adding increasing concentrations of single domain VHH fragments that either inhibit catalase or SOD the protection of the tumor cells from their own ROS signaling was annulled so that based on the cell-owned extracellular superoxide anion production the NO/peroxynitrite signal path and the HOCl path (with MKN-45 cells) or in case of the SHEP cells only the NO/peroxynitrite path could start when the cells were incubated at 37° C. The analysis of the signal paths was carried out by the application of inhibitors of the NADPH oxidase (AEBSF), the HOCl scavenger taurine, the peroxynitrite scavenger FeTPPS and the singlet oxygen scavenger histidine. In some experiments for comparison instead of the single domain VHH fragments either recombinant Fab fragments or monoclonal antibodies were applied. This is indicated in the respective illustrations.
(§2) Double preparations were examined at the times shown in the text by means of phase contrast reverse microscopy for the percentage of apoptotic cells. Here, the classical apoptosis criteria described and documented in Heinzelmann and Bauer 2010 such as condensation of the nucleus, fragmentation of the nucleus, and membrane blebbing were used. Per single preparation at least 250 randomly selected cells were examined for the presence of apoptosis features.
10 000 cells of the human neuroblastoma line SHEP per 100 μl medium were mixed with the given concentrations of the catalase-neutralizing single domain VHH fragment aCATcb0972, the SOD-neutralizing single domain VHH fragment aSOD0989, the SOD-binding but not neutralizing single domain VHH fragment aSODcb991 and the hybrid molecule aCATaSOD and incubated for 5 hours at 37° C., 5% CO2, before percentages of apoptotic cells were determined.
10 000 cells of the human neuroblastoma line SHEP per 100 μl medium were mixed with the given concentrations of the SOD-neutralizing single domain VHH fragment aSOD0989. Parallel preparations received 20 μM or 100 μM of the NO donor sodium nitroprusside or were incubated without a further additive. After 5 hours at 37° C., 5% CO2 the percentages of apoptotic cells were determined.

[4] = system: human colon carcinoma xenotransplant; experiment: Growth of human colon carcinoma xenotransplant on immunocompromised mice; format: in vivo
Method: The experiments carried out in FIGS. 28A and 28B and FIG. 29 were carried out by a commercial certified supplier (Oncotest GmbH, Freiburg). Here, xenotransplants of a human colon carcinoma were implanted in suitable mice. After the tumors had grown on and a certain minimum size had been achieved, the therapeutic test was started. aSODcb0989 in the indicated doses (mg/kg body weight) or buffer were intravenously applied twice a week. Also, the tumor sizes were measured twice a week by means of a caliber.

[5] = system: MKN-45 gastric carcinoma cells; experiment: Standard preparation for autocrine ROS-controlled apoptosis induction in tumor cells (percentage of apoptotic cells); format: cell-based, human
Method: as §1
as §2, with “features. […]” for “features.”

T1 sequence (P00441 2-154 limits assumed): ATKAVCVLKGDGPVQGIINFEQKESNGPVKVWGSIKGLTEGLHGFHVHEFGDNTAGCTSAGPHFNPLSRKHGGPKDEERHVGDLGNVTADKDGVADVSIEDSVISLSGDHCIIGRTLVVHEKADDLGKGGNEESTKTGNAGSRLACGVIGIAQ

binding to human SOD1 (human SOD1 [1])	neutralization (inhibition) of human SOD1 (human SOD1 [2])	Molecule	concentration required for apoptosis-inducing effect relative to the neutralizing single domain VHH fragment ([3]; 5 hours)	apoptosis induction in SHEP cells ([3]; 5 hours at 37° C., 5% CO2)	tumor growth versus control group ([4]; 0.03 mg/kg intravenously twice a week)	tumor growth versus control group ([4]; 0.3 mg/kg intravenously twice a week)	tumor growth versus control group ([4]; 0.9 mg/kg intravenously twice a week)	apoptosis induction in the presence of peroxynitrite scavenger FeTPPS ([5]; 25 μM FeTPPS)	apoptosis induction in the presence of HOCl scavenger taurine ([5]; 50 mM taurine)	apoptosis induction in combination with 0.005 pg/ml of the complementary single domain VHH fragment ([5]; 3.5 hours, FIG. 18)	optimum conc. ([5]; Table 1, concentration necessary for optimum apoptosis induction, taken from FIGS. 13A, 13B, 15A, 15B, 20) [pg/mL]	optimum conc. ([5]; Table 2, FIG. 20 experiment, 3.5 hours) [pg/mL]	ROS signaling path induced ([5]; inhibitor analysis)
bind to human SOD1	do not neutralize it	aSODcb0991: single domain VHH fragment binding to human SOD1, but not neutralizing; SEQ ID NO: 16 (protein, SOD binding) VHH: MAQVQLVESGGGIVQPGGSLRLSCVASESISDIDAMYWHRQAPGKRRELVAGITNDGTEYFADSVKGRFAISRDNTKSSLYLQMNSLKLEDTAMYYCATLPNPPPGYWGQGTQVTVSSKKKHHHHHH	10^6 fold	at high concentrations also achieves an apoptosis-inducing effect; also recorded: weak but significant apoptosis induction	–	–	–	–	–	–	–	–	–
binds to	neutralizes human SOD1	aSODcb0989: single domain VHH fragment that binds to and neutralizes human SOD1; SEQ ID NO: 15 (protein, SOD binding) VHH: MAQVQLVESGGGLVQSGGSLTLSCTASGFTISNYPMTWVRQAPGKGLEWVSRINSGGDRTLYADSVKGRFTVSRDNARNTMYLQMNNLKPEDTGLYFCADSGAGWRYWGQGTQVTVSSKKKHHHHHH	–	–	there does not result a recognizable difference to the controls	very clearly differs from the control group	in some animals the growth inhibition is enhanced, whereas in other animals there is caused the contrary	complete inhibition by means of FeTPPS	disappearance of an inhibition by taurine	noteworthy synergistic effect	1.2	0.35	exclusively via the NO/peroxynitrite path
